These results are taken from article PMC7048817, “Structure of the processive human Pol δ holoenzyme” (Nature Communications, 2020).

For series [1], the target named is T1, p125, catalytic subunit of human Pol δ (human, UniProt P28340 1-1107).
T1 construct: DNA polymerase delta catalytic subunit p125, human; Stood in the assay as a subunit of the Pol δ heterotetramer; source: Sf9 insect cells, coexpressed with p50, p66 and p12 (MultiBac baculovirus), purified as the heterotetramer
T1 sequence: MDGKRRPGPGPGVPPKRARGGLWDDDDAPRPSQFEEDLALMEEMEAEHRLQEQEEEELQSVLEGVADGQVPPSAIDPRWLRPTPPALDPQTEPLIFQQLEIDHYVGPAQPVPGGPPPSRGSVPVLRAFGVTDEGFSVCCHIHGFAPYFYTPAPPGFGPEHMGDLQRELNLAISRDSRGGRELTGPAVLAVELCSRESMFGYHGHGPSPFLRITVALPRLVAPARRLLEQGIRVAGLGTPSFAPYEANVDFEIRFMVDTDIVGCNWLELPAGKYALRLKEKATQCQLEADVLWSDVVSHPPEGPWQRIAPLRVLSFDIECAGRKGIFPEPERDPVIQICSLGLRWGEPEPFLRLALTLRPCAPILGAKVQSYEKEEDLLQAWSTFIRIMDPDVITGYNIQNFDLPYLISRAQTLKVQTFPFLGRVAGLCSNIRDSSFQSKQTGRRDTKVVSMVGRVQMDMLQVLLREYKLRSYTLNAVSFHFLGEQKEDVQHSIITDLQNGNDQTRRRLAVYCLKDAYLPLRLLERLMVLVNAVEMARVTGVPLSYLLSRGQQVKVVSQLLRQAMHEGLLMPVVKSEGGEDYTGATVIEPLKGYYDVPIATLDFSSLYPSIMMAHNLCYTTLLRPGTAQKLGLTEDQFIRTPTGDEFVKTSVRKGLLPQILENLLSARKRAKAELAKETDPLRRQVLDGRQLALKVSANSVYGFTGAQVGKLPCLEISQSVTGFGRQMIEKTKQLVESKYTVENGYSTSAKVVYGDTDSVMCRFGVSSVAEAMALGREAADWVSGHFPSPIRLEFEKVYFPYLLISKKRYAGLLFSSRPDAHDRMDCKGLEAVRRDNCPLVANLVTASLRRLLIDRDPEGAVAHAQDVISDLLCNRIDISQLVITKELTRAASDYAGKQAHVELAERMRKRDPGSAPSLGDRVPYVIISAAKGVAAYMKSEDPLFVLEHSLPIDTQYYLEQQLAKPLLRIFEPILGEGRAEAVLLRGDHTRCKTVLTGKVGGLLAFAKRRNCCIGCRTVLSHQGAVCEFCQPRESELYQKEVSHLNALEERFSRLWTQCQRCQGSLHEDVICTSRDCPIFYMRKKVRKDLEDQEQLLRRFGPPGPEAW
The series can be described thus: cryo-EM structure; Pol δ–DNA–PCNA–dTTP complex with 25/38 primer/template DNA (3' dideoxy terminator); 25 mM HEPES-KOH pH 7.5, 100 mM potassium acetate, 10 mM calcium chloride, 0.02% NP-40, 0.4 mM biotin, 1 mM DTT; 4.1 Å map from the sample frozen after mixing (conformers at 4.3, 4.9, 8.1 Å), 3.0 Å map from the gel-filtered sample in which FEN1 is invisible. The settings on record: both partners purified.

Series [2] has as its target T2, p50, regulatory subunit of human Pol δ (human, UniProt P49005 1-469).
T2 construct: DNA polymerase delta subunit p50 (B-subunit), human; Stood in the assay as a subunit of the Pol δ heterotetramer; also called B-subunit; source: Sf9 insect cells, coexpressed with p125, p66 and p12 (MultiBac baculovirus), purified as the heterotetramer
Described as above. The settings on record: both partners purified.

Series [3] deals with the molecule itself. In words: SEC; HiLoad 16/600 Superdex 200 pg in PCNA storage buffer; 2 mg of each PCNA form in 250 μL, 1 mL/min; markers carbonic anhydrase (27 kDa) and conalbumin (75 kDa); monomers to trimer. For orientation: In gel filtration, larger molecules generally elute earlier.

T2 sequence (P49005 whole entry, stated change not applied): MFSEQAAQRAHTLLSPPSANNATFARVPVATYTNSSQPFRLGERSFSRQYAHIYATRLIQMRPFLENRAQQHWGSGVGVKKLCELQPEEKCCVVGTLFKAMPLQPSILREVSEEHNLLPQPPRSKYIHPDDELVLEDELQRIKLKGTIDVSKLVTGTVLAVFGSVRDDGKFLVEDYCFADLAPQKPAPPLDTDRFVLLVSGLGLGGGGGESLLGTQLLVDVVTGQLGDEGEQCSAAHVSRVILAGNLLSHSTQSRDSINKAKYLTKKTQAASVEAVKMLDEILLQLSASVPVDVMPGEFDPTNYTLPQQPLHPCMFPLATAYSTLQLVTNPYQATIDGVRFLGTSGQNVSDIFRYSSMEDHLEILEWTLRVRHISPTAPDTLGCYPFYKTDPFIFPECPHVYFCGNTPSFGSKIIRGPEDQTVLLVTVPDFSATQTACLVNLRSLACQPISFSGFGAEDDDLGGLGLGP

B1: p12, regulatory subunit of human Pol δ (natural protein)
chain: GRKRLITDSYPVVKRREGPAGHSKGELAPELGEEPQPRDEEEAELELLRQFDLAWQYGPCTGITRLQRWCRAKQMGLEPPPEVWQVLKTHPGDPRFQCSLWHLYPL
notes: Stood in the assay as a subunit of the Pol δ heterotetramer; source: Sf9 insect cells, coexpressed with p125, p50 and p66 (MultiBac baculovirus), purified as the heterotetramer
On to B1, for which the binding result in series [1] and in series [2] was “binds” each time.

B2: DLDV-PCNA (PCNA D120A, L121A, D122A, V123E) (natural protein, human, UniProt P12004 1-261, looked up)
chain: MFEARLVQGSILKKVLEALKDLINEACWDISSSGVNLQSMDSSHVSLVQLTLRSEGFDTYRCDRNLAMGVNLTSMSKILKCAGNEDIITLRAEDNADTLALVFEAPNQEKVSDYEMKLMAAAEEQLGIPEQEYSCVVKMPSGEFARICRDLSHIGDAVVISCAKDGVKFSASGELGNGNIKLSQTSNVDKEEEAVTIEMNEPVQLTFALRYLNFFTKATPLSSTVTLSMSADVPLVVEYKIADMGHLKYYLAPKIEDEEGS
notes: proliferating cell nuclear antigen, human, full length, with D120A, L121A, D122A and V123E; source: E. coli BL21 (DE3), purified (HisTrap, HiTrap Q, Superdex 200)
By stoichiometry N is commonly meant a count of units in the complex or per binding partner. On to B2, for which the “stoichiometry N” value in series [3] worked out at 3.

B3: p66, regulatory subunit of human Pol δ (natural protein)
chain: ADQLYLENIDEFVTDQNKIVTYKWLSYTLGVHVNQAKQMLYDYVERKRKENSGAQLHVTYLVSGSLIQNGHSCHKVAVVREDKLEAVKSKLAVTASIHVYSIQKAMLKDSGPLFNTDYDILKSNLQNCSKFSAIQCAAAVPRAPAESSSSSKKFEQSHLHMSSETQANNELTTNGHGPPASKQVSQQPKGIMGMFASKAAAKTQETNKETKTEAKEVTNASAAGNKAPGKGNMMSNFFGKAAMNKFKVNLDSEQAVKEEKIVEQPTVSVTEPKLATPAGLKKSSKKAEPVKVLQKEKKRGKRVALSDDETKETENMRKKRRRIKLPESDSSEDEVFPDSPGAYEAESPSPPPPPSPPLEPVPKTEPEPPSVKSSSGENKRKRKRVLKSKTYLDGEGCIVTEKVYESESCTDSEEELNMKTSSVHRPPAMTVKKEPREERKGPKKGTAALGKANRQVSITGFFQRK
notes: DNA polymerase delta subunit p66, human; last visible residue in the map is Ala144; Stood in the assay as a subunit of the Pol δ heterotetramer; also called p66N (its visible N-terminal part); source: Sf9 insect cells, coexpressed with p125, p50 and p12 (MultiBac baculovirus), purified as the heterotetramer
Regarding B3, in series [2], the binding result is “binds”.
